Assay results as given in patent publication US20190248863A1 (published 2019).

Experiments:
Test in all cases: cell-based or functional assay
rat RXFP1 = molecular target: T1, rat RXFP1 (rat, UniProt Q6R6I6 1-758)
T1 sequence (looked up): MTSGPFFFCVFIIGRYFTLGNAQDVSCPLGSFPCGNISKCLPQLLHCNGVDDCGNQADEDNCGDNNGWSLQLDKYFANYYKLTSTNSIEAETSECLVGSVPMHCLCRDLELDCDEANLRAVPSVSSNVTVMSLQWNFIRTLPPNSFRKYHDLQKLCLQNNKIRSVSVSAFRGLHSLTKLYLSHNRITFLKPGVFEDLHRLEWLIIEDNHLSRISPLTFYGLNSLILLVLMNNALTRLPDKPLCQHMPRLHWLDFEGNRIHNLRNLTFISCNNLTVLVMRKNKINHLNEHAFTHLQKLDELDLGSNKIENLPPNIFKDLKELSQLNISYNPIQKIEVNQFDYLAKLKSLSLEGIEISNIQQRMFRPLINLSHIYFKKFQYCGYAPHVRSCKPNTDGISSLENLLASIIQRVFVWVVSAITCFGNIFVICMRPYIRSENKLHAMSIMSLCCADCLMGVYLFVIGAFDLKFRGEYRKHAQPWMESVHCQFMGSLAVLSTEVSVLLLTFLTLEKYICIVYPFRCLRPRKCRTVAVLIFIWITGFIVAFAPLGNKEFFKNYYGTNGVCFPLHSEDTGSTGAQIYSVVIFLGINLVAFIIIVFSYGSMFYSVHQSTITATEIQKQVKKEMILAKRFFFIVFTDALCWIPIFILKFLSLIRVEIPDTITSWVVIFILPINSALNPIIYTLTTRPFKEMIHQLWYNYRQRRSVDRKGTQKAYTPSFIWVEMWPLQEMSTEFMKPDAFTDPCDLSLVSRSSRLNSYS

cynomolgus monkey RXFP1 = molecular target: T2, cynomolgus monkey RXFP1 (cynomolgus monkey, UniProt H9ERA2 1-757 (rhesus entry))
T2 sequence: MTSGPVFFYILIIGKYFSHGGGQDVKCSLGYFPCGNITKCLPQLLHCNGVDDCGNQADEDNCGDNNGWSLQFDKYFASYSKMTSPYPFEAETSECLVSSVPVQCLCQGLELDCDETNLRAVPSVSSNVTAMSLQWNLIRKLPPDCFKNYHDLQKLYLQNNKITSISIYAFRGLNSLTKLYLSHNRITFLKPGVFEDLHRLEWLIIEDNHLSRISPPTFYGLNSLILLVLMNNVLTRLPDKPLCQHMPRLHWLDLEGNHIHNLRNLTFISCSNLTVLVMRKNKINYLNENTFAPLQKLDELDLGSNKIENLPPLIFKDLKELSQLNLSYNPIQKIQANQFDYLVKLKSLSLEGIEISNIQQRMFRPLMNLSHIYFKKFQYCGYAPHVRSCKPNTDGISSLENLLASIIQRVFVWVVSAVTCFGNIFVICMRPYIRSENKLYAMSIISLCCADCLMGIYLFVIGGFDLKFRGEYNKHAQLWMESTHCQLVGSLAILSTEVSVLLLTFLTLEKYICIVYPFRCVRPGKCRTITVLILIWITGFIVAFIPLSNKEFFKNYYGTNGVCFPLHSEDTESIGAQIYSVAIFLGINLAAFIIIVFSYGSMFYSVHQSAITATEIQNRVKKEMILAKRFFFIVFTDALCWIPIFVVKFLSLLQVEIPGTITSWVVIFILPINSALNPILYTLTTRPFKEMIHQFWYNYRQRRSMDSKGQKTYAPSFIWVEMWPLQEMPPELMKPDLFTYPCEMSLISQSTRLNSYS

dog RXFP1 = dog RXFP1 (dog)
human RXFP1 = molecular target: T3, human RXFP1 (human, UniProt Q9HBX9 1-757)
T3 sequence (looked up): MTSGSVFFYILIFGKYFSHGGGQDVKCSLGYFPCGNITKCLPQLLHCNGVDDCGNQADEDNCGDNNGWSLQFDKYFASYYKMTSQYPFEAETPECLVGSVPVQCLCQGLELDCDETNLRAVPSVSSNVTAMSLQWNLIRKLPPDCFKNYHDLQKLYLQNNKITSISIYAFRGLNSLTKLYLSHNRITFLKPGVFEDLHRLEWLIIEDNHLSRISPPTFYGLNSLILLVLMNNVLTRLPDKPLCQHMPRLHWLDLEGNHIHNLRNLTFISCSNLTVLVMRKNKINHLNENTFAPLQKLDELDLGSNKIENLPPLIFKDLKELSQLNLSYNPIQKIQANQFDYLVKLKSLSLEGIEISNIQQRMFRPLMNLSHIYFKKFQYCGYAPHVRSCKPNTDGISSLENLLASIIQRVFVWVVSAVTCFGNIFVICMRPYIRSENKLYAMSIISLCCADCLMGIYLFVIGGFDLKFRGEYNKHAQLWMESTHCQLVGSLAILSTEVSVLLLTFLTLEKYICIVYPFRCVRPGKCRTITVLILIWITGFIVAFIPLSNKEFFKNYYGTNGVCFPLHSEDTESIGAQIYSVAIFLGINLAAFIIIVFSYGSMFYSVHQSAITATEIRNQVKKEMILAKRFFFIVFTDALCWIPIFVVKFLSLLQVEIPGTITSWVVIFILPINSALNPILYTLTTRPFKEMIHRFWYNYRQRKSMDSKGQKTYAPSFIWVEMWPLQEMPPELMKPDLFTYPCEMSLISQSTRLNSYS

mouse RXFP1 = molecular target: T4, mouse RXFP1 (mouse, UniProt Q6R6I7 1-758)
T4 sequence (looked up): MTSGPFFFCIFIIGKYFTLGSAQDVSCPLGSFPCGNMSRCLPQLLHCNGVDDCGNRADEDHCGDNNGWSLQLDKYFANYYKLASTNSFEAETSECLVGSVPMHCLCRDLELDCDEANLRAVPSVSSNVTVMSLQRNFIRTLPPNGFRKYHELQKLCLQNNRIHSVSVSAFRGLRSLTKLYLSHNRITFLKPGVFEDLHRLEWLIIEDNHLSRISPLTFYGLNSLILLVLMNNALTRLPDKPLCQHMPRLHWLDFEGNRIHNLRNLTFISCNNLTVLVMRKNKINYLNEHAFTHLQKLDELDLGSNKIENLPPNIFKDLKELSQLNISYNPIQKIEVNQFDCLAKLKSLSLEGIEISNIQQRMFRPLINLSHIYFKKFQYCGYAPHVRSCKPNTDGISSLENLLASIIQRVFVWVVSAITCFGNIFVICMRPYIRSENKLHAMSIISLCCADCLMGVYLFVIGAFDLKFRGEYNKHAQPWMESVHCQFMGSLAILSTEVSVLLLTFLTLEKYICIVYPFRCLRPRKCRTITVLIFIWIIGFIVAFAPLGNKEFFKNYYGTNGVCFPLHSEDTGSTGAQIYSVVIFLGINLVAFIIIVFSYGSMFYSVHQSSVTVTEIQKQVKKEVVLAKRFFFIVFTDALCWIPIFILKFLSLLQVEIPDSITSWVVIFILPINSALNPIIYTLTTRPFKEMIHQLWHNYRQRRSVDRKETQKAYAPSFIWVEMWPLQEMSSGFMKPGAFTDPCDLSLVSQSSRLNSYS

B1: RLX-A-AQ1-20KPEG (ligand)
chain 1: XLYSALANKCCHVGCTKRSLARFC
chain 2: ASWMEEVIKLCGRELVRAQIAICGMSTWS
modifications: para-acetylphenylalanine (pAcF, X) at position 1 of the A chain, linked to a 20 kDa PEG via an oxime linkage
Q: B1 was tested. Which “RLX-A-AQ1-20KPEG Potency Ratio (hRXFP1-1.0), cAMP assay” value (shortened to “RLX-A-AQ1-20KPEG Potency Ratio”) (rat RXFP1) did it give?
A: 0.34 fold

Q: And the “RLX-A-AQ1-20KPEG Potency Ratio” value (cynomolgus monkey RXFP1)?
A: 1.6 fold

Q: What about the “RLX-A-AQ1-20KPEG Potency Ratio” value (dog RXFP1) of the same binder?
A: 4.7 fold

Q: What about the “RLX-A-AQ1-20KPEG Potency Ratio” value (human RXFP1) of the same binder?
A: 1 fold

Q: And the “RLX-A-AQ1-20KPEG Potency Ratio” value (mouse RXFP1)?
A: 0.66 fold
